The results in this text go back to PMC3308208, “Disassembly and reassembly of human papillomavirus virus-like particles produces more virion-like antibody reactivity” (Virology Journal, 2012).

This data set concerns the molecule itself. Kind of data set: cryo-EM imaging; post-D/R HPV16 VLPs, undiluted, in vitrified ice on holey carbon films; Tecnai F20 at 120 keV.

B1: HPV16 L1 virus-like particles (VLPs) (natural protein)
chain: MSLWLPSEATVYLPPVPVSKVVSTDEYVARTNIYYHAGTSRLLAVGHPYFPIKKPNNNKILVPKVSGLQYRVFRIHLPDPNKFGFPDTSFYNPDTQRLVWACVGVEVGRGQPLGVGISGHPLLNKLDDTENASAYAANAGVDNRECISMDYKQTQLCLIGCKPPIGEHWGKGSPCTNVAVNPGDCPPLELINTVIQDGDMVDTGFGAMDFTTLQANKSEVPLDICTSICKYPDYIKMVSEPYGDSLFFYLRREQMFVRHLFNRAGAVGENVPDDLYIKGSGSTANLASSNYFPTPSGSMVTSDAQIFNKPYWLQRAQGHNNGICWGNQLFVTVVDTTRSTNMSLCAAISTSETTYKNTNFKEYLRHGEEYDLQFIFQLCKITLTADVMTYIHSMNSTILEDWNFGLQPPPGGTLEDTYRFVTSQAIACQKHTPPAPKEDPLKKYTFWEVNLKEKFSADLDQFPLGRKFLLQAGLKAKPKFTLGKRKATPTTSSTSTTAKRKKRKL
notes: major capsid protein L1 of human papillomavirus type 16, full length, self-assembled into VLPs; The same L1 protein was tested as pre-D/R VLPs (purified only) and as post-D/R VLPs (disassembled and reassembled); The T = 7 count of 360 copies is stated only in the background; also called HPV 16 L1 VLPs; post-D/R VLPs; source: over expressed in yeast, purified VLPs; post-D/R lots after disassembly …
With B1, the binding result is on record as “binds”.
